Experimental data: IntAct's records for PubMed 34039996

B1: Plexin-A4 (Mus musculus), Q80UG2 (parent)
chain: MKAMPWNWTCLLSHLLVVGMGSSTLLPRQPPQLSQKPSFVTFRGEPAEGFNHLVVDERTGHIYLGAVNRIYKLSSDLKVLVTHQTGPDEDNPKCYPPRIVQTCNEPLASTNNVNKMLLIDYKENRLIACGSLYQGICKLLRLEDLFKLGEPFHKKEHYLSGVNESGSVFGVIVSYSNFDDKLFIATAVDGKPEYFPTISSRKLTKNSEADGMFAYVFHDEFVASMIKIPSDTFTVIPDFDIYYVYGFSSGNFVYFLTLQPEMVSPPGSTTKEQVYTSKLVRLCKEDTAFNSYVEVPIGCERNGVEYRLLQAAYLSKAGAVLGRTLGVRPDDDLLFTVFSKGQKRKMKSLDESALCIFILKQINDRIKDRLQSCYRGEGTLDLAWLKVKDIPCSSALLTIDDNFCGLDMNAPLGVSEMVRGIPVFTEDRDRMTSVIAYVYKNHSLAFVGTKSGKLKKIRVDGPKGNALQYETVQVVDSGPVLRDMAFSKDHEQLYIMSERQLTRVPVESCGQYRSCGECLGSGDPHCGWCVLHNTCTRKERCERSREPRRFASEMKQCVRLTVHPNNISVSQYNVLLVLETYNVPELSAGVNCTFEDLSEMDGLVIGNQIQCYSPAAKEVPRIITENGDHHVVQLQLKSKETGMTFASTSFVFYNCSVHNSCLSCVESPYRCHWCKYRHVCTHDPNTCSFQEGRVKLPEDCPQLLRVDKILVPVEVIKPITLKAKNLPQPQSGQRGYECILNIQGIEQRVPALRFNSSSVQCQNTSYSYEGMEINNLPVELTVVWNGHFNIDNPAQNKVYLYKCGAMRESCGLCLKADPDFECGWCQSPGQCTLRQHCPAHESRWLELSGANSKCTNPRITEIIPVTGPREGGTKVTIRGENLGLEFRDIASHVKVAGVECSPLVDGYIPAEQIVCEMGEAKPSQHAGFVEICVAVCRPEFMARSSQLYYFMTLTLADLKPNRGPMSGGTQVTITGTNLNAGSNVVVMFGSQPCLFHRRSPSYIICNTTSSEEVLDMKVTVQVDRARIRQDLVFQYVEDPTIVRIEPEWSIVSGNTPIAVWGTHLDLIQNPQIRAKHGGKEHINICEVLNATEMTCQAPALALGPDHQSDLTERPEEFGFILDNVQSLLILNKTNFTYYPNPVFEAFSPSGILELKPGTPIILKGKNLIPPVAGGNVKLNYTVLVGEKPCTVTVSDVQLLCESPNLIGRHKVMARVGGMEYSPGMVYIAPDSPLSLPAIVSIAVAGGLLIIFIVAVLIAYKRKSRESDLTLKRLQMQMDNLESRVALECKEAFAELQTDIHELTSDLDGAGIPFLDYRTYTMRVLFPGIEDHPVLRDLEVPGYRQERVEKGLKLFAQLINNKVFLLSFIRTLESQRSFSMRDRGNVASLIMTVLQSKLEYATDVLKQLLADLIDKNLESKNHPKLLLRRTESVAEKMLTNWFTFLLYKFLKECAGEPLFSLFCAIKQQMEKGPIDAITGEARYSLSEDKLIRQQIEYKTLVLSCVSPDNVNSPEVPVKILNCDTITQVKEKILDAIFKNVPCSHRPKAADMDLEWRQGSGARMILQDEDITTKIENDWKRLNTVAHYQVPDGSVVALVSKQVTAYNAVNNSTVSRTSASKYENMIRYTGSPDSLRSRTPMITPDLESGVKLWHLVKNHEHGDQKEGDRGSKMVSEIYLTRLLATKGTLQKFVDDLFETIFSTAHRGSALPLAIKYMFDFLDEQADKHGIHDPHVRHTWKSNCLPLRFWVNMIKNPQFVFDIHKNSITDACLSVVAQTFMDSCSTSEHRLGKDSPSNKLLYAKDIPSYKNWVERYYSDIGKMPAISDQDMNAYLAEQSRMHMNEFNTMSALSEIFSYVGKYSEEILGPLDHDDQCGKQKLAYKLEQVITLMSLDS
B2: Neuropilin-1 (Mus musculus), P97333 (parent)
chain: MERGLPLLCATLALALALAGAFRSDKCGGTIKIENPGYLTSPGYPHSYHPSEKCEWLIQAPEPYQRIMINFNPHFDLEDRDCKYDYVEVIDGENEGGRLWGKFCGKIAPSPVVSSGPFLFIKFVSDYETHGAGFSIRYEIFKRGPECSQNYTAPTGVIKSPGFPEKYPNSLECTYIIFAPKMSEIILEFESFDLEQDSNPPGGMFCRYDRLEIWDGFPEVGPHIGRYCGQKTPGRIRSSSGVLSMVFYTDSAIAKEGFSANYSVLQSSISEDFKCMEALGMESGEIHSDQITASSQYGTNWSVERSRLNYPENGWTPGEDSYKEWIQVDLGLLRFVTAVGTQGAISKETKKKYYVKTYRVDISSNGEDWISLKEGNKAIIFQGNTNPTDVVLGVFSKPLITRFVRIKPVSWETGISMRFEVYGCKITDYPCSGMLGMVSGLISDSQITASNQADRNWMPENIRLVTSRTGWALPPSPHPYTNEWLQVDLGDEKIVRGVIIQGGKHRENKVFMRKFKIAYSNNGSDWKTIMDDSKRKAKSFEGNNNYDTPELRTFSPLSTRFIRIYPERATHSGLGLRMELLGCEVEAPTAGPTTPNGNPVDECDDDQANCHSGTGDDFQLTGGTTVLATEKPTIIDSTIQSEFPTYGFNCEFGWGSHKTFCHWEHDSHAQLRWSVLTSKTGPIQDHTGDGNFIYSQADENQKGKVARLVSPVVYSQSSAHCMTFWYHMSGSHVGTLRVKLRYQKPEEYDQLVWMVVGHQGDHWKEGRVLLHKSLKLYQVIFEGEIGKGNLGGIAVDDISINNHISQEDCAKPTDLDKKNTEIKIDETGSTPGYEGEGEGDKNISRKPGNVLKTLDPILITIIAMSALGVLLGAVCGVVLYCACWHNGMSERNLSALENYNFELVDGVKLKKDKLNPQSNYSEA

Variants of: B1
Conditions: with nrp1_mouse Nrp1, P97333

| Variant | effect of a mutation on the interaction |
| --- | --- |
| K343E | with no effect |

Variants of: B2
Conditions: with plxa4_mouse Plxna4, Q80UG2

| Variant | effect of a mutation on the interaction |
| --- | --- |
| A252E | with no effect |
| H74A | with no effect |
| E128R | with no effect |
| S251E | with no effect |
